From patent publication US20200206371A1 (WAYNE STATE UNIVERSITY, published 2020) come the findings set out here.

Assay [1] concerns the target T1, murine IFN-γ (recombinant IFN-γ) (mouse, UniProt P01580 23-155).
T1 construct: AN-18 is described as a rat mAb to murine IFN-γ; also called rIFN-γ; interferon gamma
T1 sequence (looked up): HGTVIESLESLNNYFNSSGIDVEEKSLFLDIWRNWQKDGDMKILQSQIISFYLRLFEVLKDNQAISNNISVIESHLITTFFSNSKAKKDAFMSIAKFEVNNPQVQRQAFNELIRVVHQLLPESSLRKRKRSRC
Put plainly: Octet (BLI); format not stated; diabody (scFv homodimer), not full-length antibody. On the technique in general: In BLI a coated tip is dipped into the sample, and binding shifts an interference pattern.

Assay [2] concerns the target T1, murine IFN-γ (recombinant IFN-γ). Kind of assay: Octet (BLI); format not stated; full-length AN18, not diabody.

As to “anti-IFN-γ diabody (homodimer of the single chain Fv derived from anti-IFNγ clone AN18, made in CHO cells)”, the Kd in assay [1] was 37.9 nM.

B1: AN-18 (anti-IFNγ, rat IgG1, kappa, eBioscience), full-length (antibody, V domains shown)
VH: QVQLKESGPGLVQPSQTLSLTCTVSGFSLDSYNVHWVRQPPGKGLEWMGRMKYNGDTSYNSALKSRLRISRDTSKNQVFLKMNSLQTDDTGTYYCTRDWHYGYPSPYFEFWGQGVMVTVSS
VL: DVQMTQSPSYLAASPGESVSISCKASKNINTYLAWYQEKPGKTNKLLIYSGSTLQSGTPSRFSGSGSGTDFTLTIRSLEPEDFAVYYCQQHNEYPLTFGSGTKLEVKR
notes: Bought rat IgG1, kappa monoclonal antibody; also called full-length AN18; anti-mouse IFN-γ mAb clone AN-18
As to B1, the dissociation constant Kd in assay [2] was 28.2 nM.

As a reminder, the Kd is the free concentration of one partner at which half of the binding sites on the other are occupied at equilibrium, for simple one-to-one binding.
